In one test the target is glucagon receptor (GCGR). In words: cell-based or functional assay.
Test [1] concerns the target glucagon-like peptide-1 receptor (GLP-1R). In words: cell-based or functional assay.

With “OPK-88003 KPI (SEQ ID NO: 3 where Xaa38=Cys and Xaa39=Cys) (peptide)”, in the test with glucagon receptor (GCGR), the % EC50 compare to KPI (GCGR), with HSA added (KPI + HSA) turned out to be 129%; the EC50 (nM) GCGR, glucagon activity in vitro was found to be 0.0731 nM; the EC50 [nM] GCGR, CBA potency assay stood at 0.6 nM; the EC50 [nM] GCGR, CBA potency assay, with HSA added (KPI + HSA) was 1.06 nM. For the same substance, the EC50 [nM] GCGR, CBA potency assay, without HSA with glucagon receptor (GCGR) was 1.37 nM. Further, in test [1], the % EC50 compare to KPI (GLP1), with HSA added (KPI + HSA) stood at 107%; the EC50 (nM) GLP-1R, GLP-1 activity in vitro amounted to 0.0168 nM; the EC50 (nM), GLP-1 activity came out at 0.105 nM; the EC50 [nM] GLP1, CBA potency assay was determined as 0.127 nM. For the same substance, in test [1], the EC50 [nM] GLP1, CBA potency assay, with HSA added (KPI + HSA) stood at 0.187 nM and the EC50 [nM] GLP1, CBA potency assay, without HSA was found to be 0.201 nM.

As for “Tirzepatide (Mounjaro, Zepbound) (peptide)”, the EC50 (nM), GLP-1 activity in test [1] was 0.9 nM.
